These results are taken from the supplement of paper PMC12042874.

± gives the uncertainty stated by the source.

A short description of the series: amyloid nucleation score (Sup35N fusion, yeast selection) (log enrichment); library NNK1; higher = more nucleation; inactive = no reads after selection. The essentials:
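The nucleation score is a DiMSum log enrichment of output over input reads, centred on the mode score of non-aggregating sequences. Sequences under 100 input reads were excluded, and reads came from Illumina sequencing of plasmid inserts. Psi-negative yeast expressing Sup35N fused to peptides of 20 random codons were induced with 100 μM copper sulfate for 24 hours and grown 7 days at 30°C on medium lacking adenine and uracil. Random libraries had three technical output replicates.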
With HRRSTHGMYPVPYCSSINH, the amyloid nucleation score was 0.687 ± 0.48.

In turn, KLSYFSQEKRDNWPISRLPS displayed an amyloid nucleation score of 0.072 ± 0.3.

NSVAGSYGVWQWGDSRSLPP returned an amyloid nucleation score of 0.262 ± 0.43.

In turn, TGDVLIYWFLVTHRMTAVQV yielded an amyloid nucleation score of -0.096 ± 1.

Substance VPVLLNARIRI showed an amyloid nucleation score of -1.1 ± 0.81.

On to WYKMSRRGQ, for which the amyloid nucleation score was determined as 0.857 ± 1.

DGLKWVDWPWGHYGEMMVEM: the amyloid nucleation score was found to be 1.01 ± 0.55.

GSSTMIGMANSFVVGLDSNE: the amyloid nucleation score entry is “inactive”.

On to RASDRSSIMICF, for which the amyloid nucleation score was 0.382 ± 1.4.

Take GLLSRNLVLRGLNSGNWPFG: the amyloid nucleation score result was “inactive”.

GRGVLDYNGTTKKARVNRLC: the amyloid nucleation score entry is “inactive”.

With LHAGHSSLNALAYSFRLHDR, the amyloid nucleation score turned out to be 0.775 ± 0.52.

Turning to SIYRYLCGRFDCLWILPCEH, the amyloid nucleation score was found to be 1.29 ± 0.84.

In turn, IKWSGVVASGGDNPLTDHSR gave an amyloid nucleation score of -0.05 ± 0.71.

As for CRFMNVRYGKRMKVDNTVMA, the amyloid nucleation score is -0.891 ± 1.4.

GCMVFS gave an amyloid nucleation score of 0.352 ± 0.76.

For the substance LRPKWVAGDVLFQIYPWTRR, the amyloid nucleation score amounted to 0.629 ± 0.85.

In the case of CTSLDFSNKVRCVMGQSVLL, the amyloid nucleation score was -0.606 ± 0.97.

Consider SNKDLKSLTICRSTQHWTVL, for which the amyloid nucleation score was 0.095 ± 0.27.

For the substance RCYKSLVGMNTHKSAAVVER, the amyloid nucleation score was found to be 0.011 ± 0.27.

TAYIIKHSFWLGPFNLGSLM: the amyloid nucleation score amounted to 3.88 ± 0.12.

As to RSSSCKWV, the amyloid nucleation score was -0.53 ± 0.75.

The substance MKSALKALTEHSPQSYDWCR gave an amyloid nucleation score of -0.4 ± 0.61.

With TSGFLPLKTKMF, the amyloid nucleation score was determined as 0.252 ± 0.8.

The substance SAVLFIEFCVLIVVMFSIMM had an amyloid nucleation score of -0.241 ± 1.2.

As to VYSMVFLMPCNRHDSFGRYS, the amyloid nucleation score was 6.578 ± 0.056.

VQYNLTCNYY: the amyloid nucleation score was 4.01 ± 0.14.

In the case of CLPLACLKTLSNDSVWLDCA, the amyloid nucleation score worked out at 0.402 ± 0.35.

AYTCHYQGGGLVNLVDVGYG: the amyloid nucleation score is 0.353 ± 0.69.

As for NVDSRFD, the amyloid nucleation score was -1.1 ± 0.81.

On to TEGPSN, for which the amyloid nucleation score result is “inactive”.

As for GAIIFLSCGWSKCFCTLWVI, the amyloid nucleation score is -0.381 ± 0.38.

RSRSGC gave an amyloid nucleation score of 0.441 ± 0.51.

Substance MLVHYVAFVFNMSTRCNCSE registered an amyloid nucleation score of 6.253 ± 0.046.

Substance CRFPCSCHRWSMIRSVVCKR displayed an amyloid nucleation score of 0.03 ± 0.97.

In turn, SRYQEYRFQMCMMECMRRLA displayed an amyloid nucleation score of 0.115 ± 1.

In turn, LSWFPA registered an amyloid nucleation score of 0.179 ± 0.27.

In turn, SDTLCPSADWVRRSARCQVD yielded an amyloid nucleation score of 0.8 ± 0.74.

In the case of PVDFNQYVVSGLQDLLHYAG, the amyloid nucleation score result was “inactive”.

YPGGILIRRVNIKLDGAAIV showed an amyloid nucleation score of -0.869 ± 0.68.

In turn, NACIQVTGRCCIACVVEFWY displayed an amyloid nucleation score of 1.32 ± 0.38.

VNLYGVLMGSLLGGQRQHDV yielded an amyloid nucleation score of -1.1 ± 1.9.

In the case of FDGGKVSILFAFISNP, the amyloid nucleation score was determined as 6.252 ± 0.048.

The substance KFTFDS registered an amyloid nucleation score of 1.52 ± 0.35.

Take FFKLKHGNTDRSYIYYVGCA: the amyloid nucleation score was -0.01 ± 0.21.

Substance DSRPCGYSRITFVCKGCAPC gave an amyloid nucleation score of 0.53 ± 0.79.

As to TDQCGWGTVRRSAETSLGQL, the amyloid nucleation score was 0.77 ± 0.78.

In turn, LDLSSWGTVP yielded an amyloid nucleation score of 0.122 ± 0.44.

Regarding WVRSNKGQAGSG, the amyloid nucleation score amounted to 0.886 ± 1.

Substance HFKRWLVNLFLTEFEKSYGV returned an amyloid nucleation score of -1.28 ± 0.62.

In the case of FSGCQSARGKLWVSDWEL, the amyloid nucleation score entry is “inactive”.

In the case of FSSEVRVWVWNCCFNRFSCI, the amyloid nucleation score came out at 4.74 ± 0.061.

For TGRRIVGYDCLNRSCMYICV, the amyloid nucleation score is -0.321 ± 0.25.

As to KEIIEMWSTFTYNQIWCDWI, the amyloid nucleation score is -0.322 ± 0.42.

Take VGRSQRMQKTLKVSVWYWIN: the amyloid nucleation score turned out to be 0.117 ± 0.7.

The substance SCTGCLFDTELRWISWVGLF registered an amyloid nucleation score of 0.074 ± 0.39.
